Reference: article PMC11741606

Columns and labels:
[1] = target: chicken aminopeptidase N ectodomain fused with the Fc domain of human IgG (chicken (Gallus gallus)) (UniProt O57579); assay: SPR; hFc-tagged APN from concentrated supernatant captured on a protein A sensor chip (>1000 RU); serially diluted RBD flowed over in PBST; BIAcore 8K, single-cycle mode; 1:1 Langmuir model; mean ± SD of three experiments
[2] = target: dog aminopeptidase N ectodomain fused with the Fc domain of human IgG (dog (Canis lupus familiaris)) (UniProt P79143); assay: as above
[3] = target: pig aminopeptidase N ectodomain fused with the Fc domain of human IgG (pig (Sus scrofa)) (UniProt P15145); assay: as above
Chain of pig aminopeptidase N ectodomain fused with the Fc domain of human IgG (pig (Sus scrofa)) (P15145 33-963): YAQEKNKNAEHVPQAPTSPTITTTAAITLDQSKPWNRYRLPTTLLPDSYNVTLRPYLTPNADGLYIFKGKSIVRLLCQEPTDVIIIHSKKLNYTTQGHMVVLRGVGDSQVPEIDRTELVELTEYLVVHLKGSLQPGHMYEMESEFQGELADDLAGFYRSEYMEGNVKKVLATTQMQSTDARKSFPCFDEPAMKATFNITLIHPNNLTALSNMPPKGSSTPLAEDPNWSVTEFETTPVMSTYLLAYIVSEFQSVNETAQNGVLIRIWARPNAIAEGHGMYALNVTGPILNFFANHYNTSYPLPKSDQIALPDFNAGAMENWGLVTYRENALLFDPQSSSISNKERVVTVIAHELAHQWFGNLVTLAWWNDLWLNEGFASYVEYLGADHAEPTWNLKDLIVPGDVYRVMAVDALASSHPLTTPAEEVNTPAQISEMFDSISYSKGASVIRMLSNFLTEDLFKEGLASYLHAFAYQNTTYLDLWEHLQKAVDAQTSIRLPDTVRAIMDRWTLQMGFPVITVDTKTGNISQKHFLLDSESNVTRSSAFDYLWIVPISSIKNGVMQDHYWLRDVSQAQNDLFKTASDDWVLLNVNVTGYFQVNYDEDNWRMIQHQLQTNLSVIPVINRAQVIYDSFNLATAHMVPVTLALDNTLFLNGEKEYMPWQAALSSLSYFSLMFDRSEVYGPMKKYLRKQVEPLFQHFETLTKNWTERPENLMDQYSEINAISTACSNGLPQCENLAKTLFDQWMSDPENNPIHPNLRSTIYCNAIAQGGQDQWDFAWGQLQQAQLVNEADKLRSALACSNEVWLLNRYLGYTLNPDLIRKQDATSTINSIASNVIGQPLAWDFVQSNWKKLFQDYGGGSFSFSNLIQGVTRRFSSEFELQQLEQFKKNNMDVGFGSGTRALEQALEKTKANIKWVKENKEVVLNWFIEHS

[4] = target: PDCoV RBD (receptor-binding domain of the porcine deltacoronavirus spike protein); assay: SPR

Chain of chicken aminopeptidase N ectodomain fused with the Fc domain of human IgG (chicken (Gallus gallus)) (O57579 32-972): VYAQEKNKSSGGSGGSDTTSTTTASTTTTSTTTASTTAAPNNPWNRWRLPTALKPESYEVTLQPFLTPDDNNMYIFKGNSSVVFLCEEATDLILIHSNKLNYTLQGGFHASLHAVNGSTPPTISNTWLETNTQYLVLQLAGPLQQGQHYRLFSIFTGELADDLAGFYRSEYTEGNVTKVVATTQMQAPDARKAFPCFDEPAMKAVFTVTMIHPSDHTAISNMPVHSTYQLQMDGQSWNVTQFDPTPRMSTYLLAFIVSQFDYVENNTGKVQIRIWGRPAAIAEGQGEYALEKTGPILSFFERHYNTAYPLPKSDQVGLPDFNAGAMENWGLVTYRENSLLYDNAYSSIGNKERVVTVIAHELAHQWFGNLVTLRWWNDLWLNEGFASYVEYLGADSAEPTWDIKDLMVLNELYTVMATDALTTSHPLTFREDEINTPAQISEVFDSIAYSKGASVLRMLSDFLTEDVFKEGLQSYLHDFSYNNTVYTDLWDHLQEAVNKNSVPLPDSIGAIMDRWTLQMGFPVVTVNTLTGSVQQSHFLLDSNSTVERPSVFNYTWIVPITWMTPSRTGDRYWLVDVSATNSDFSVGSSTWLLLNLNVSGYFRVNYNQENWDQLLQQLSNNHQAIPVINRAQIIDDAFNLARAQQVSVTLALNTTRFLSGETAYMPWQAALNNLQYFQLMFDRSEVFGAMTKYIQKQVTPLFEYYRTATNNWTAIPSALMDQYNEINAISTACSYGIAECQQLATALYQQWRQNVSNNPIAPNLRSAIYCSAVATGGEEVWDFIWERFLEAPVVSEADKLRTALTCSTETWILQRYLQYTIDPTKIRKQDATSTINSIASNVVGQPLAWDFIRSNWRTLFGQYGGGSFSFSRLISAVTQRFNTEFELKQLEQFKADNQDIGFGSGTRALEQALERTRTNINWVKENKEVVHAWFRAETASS

Substance | Kd [4] [µM] | other results
PDCoV RBD (receptor-binding domain of the porcine deltacoronavirus spike protein) (domain or fragment) | – | Kd [1]: 3.03 µM; Kd [2]: 0.84 µM; Kd [3]: 12.8 µM
dog aminopeptidase N ectodomain fused with the Fc domain of human IgG (from UniProt P79143) D750E | 0.148 | –
dog aminopeptidase N ectodomain fused with the Fc domain of human IgG (from UniProt P79143) Y375F | 0.35 | –
TGEV RBD (receptor-binding domain of the transmissible gastroenteritis coronavirus spike protein) (domain or fragment) | – | Kd [2]: 0.02 µM; Kd [3]: 2.77 µM
dog aminopeptidase N ectodomain fused with the Fc domain of human IgG (from UniProt P79143) R325N | 10.5 | –
dog aminopeptidase N ectodomain fused with the Fc domain of human IgG (from UniProt P79143) E757D | 0.423 | –
dog aminopeptidase N ectodomain fused with the Fc domain of human IgG (from UniProt P79143) H751R | 1.45 | –
dog aminopeptidase N ectodomain fused with the Fc domain of human IgG (from UniProt P79143) Q753E | 0.783 | –
dog aminopeptidase N ectodomain fused with the Fc domain of human IgG (from UniProt P79143) T754N | 4.06 | –
dog aminopeptidase N ectodomain fused with the Fc domain of human IgG (from UniProt P79143) Y797H | 1.22 | –
